Results on eight molecules are retold here after US20240002497A1 (Merck Sharp & Dohme, published 2024).

Residue numbers refer to the chain shown, from its start. Numbers in names are those of the source.

Experiment [1] concerns the target T1, huNav1.7α + β1-β2-β3 (human, UniProt Q15858 1-1988; A5A6L6 19-218; O60939 30-215; Q2KI11 23-215). Description: cell-based or functional assay.
Experiment [2] addresses T2, huNav1.7α (human, UniProt Q15858 1-1988). Nature of the experiment: cell-based or functional assay.
The next experiment has as its target T3, huNav1.7α + β1 (human).
T3 construct: HEK293 cells; also called huNav1.7-beta1; huNav1.7-β1
Description: competition FACS vs EC25 of F103275B05(N93R), HEK.

Experiment [3] has as its target T2, huNav1.7α. Nature of the experiment: competition FACS vs EC25 of F103275B05(N93R), HEK.
For experiment [4], the target named is T1, huNav1.7α + β1-β2-β3. Description: competition FACS vs EC25 of F103275B05(N93R), CHO FlpIn.
The target in experiment [5] is T1, huNav1.7α + β1-β2-β3. Nature of the experiment: competition FACS vs EC25 of F103275B05(N93R), HEK FlpIn.
Experiment [6] addresses T4, rhNav1.7α + β1-β2-β3 (rhesus monkey).
T4 construct: also called rhNav1.7-beta1-beta2-beta3; rhNav1.7-β1-β2-β3
Description: competition FACS vs EC40 of F103275B05(N93R), CHO FlpIn.

In experiment [7] the target is T5, huNav1.7α+β1 (human, UniProt Q15858 1-1988; Q07699 19-218). Nature of the experiment: cell-based or functional assay.
Experiment [8] deals with T6, huNav1.7α (human, UniProt Q15858 1-1988).
T6 construct: HEK cells expressing the α subunit alone; also called HEKa; HEK huNav1.7α
Nature of the experiment: binding FACS, HEKa cells. A digest of the protocol:
(§1)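 Assessment used purified FLAG3-tagged ISVD incubated on cells for 30 minutes at 4° C in PBS containing 10% FBS and NaN₃, with cells washed between steps. Propidium iodide (1 μg/mL) staining removed dead cells from analysis.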

Experiment [9] concerns the target T5, huNav1.7α+β1. Description: binding FACS, HEKa/β1 cells. A digest of the protocol: as §1
In the next experiment the target is T7, huNav1.7α+β1-β2-β3 (human, UniProt Q15858 1-1988; Q07699 19-218; O60939 30-215; Q9NY72 23-215).
T7 construct: 5N11S variant; also called huNav1.7-beta1-beta2-beta3; huNav1.7α+Navβ1-Navβ2-Navβ3
Description: binding FACS, HEK FlpIn cells.

The target of a further experiment is T8, huNav157chim14 (human).
T8 construct: HEK Flp-In cells; also called huNav157 chimera 14
Description: binding FACS, HEK Flp-In.

A further experiment deals with T9, huNav157chim14-β1-β2-β3 (human).
T9 construct: Whole entry; HEK Flp-In cells; also called huNav157 chimera 14-beta1-beta2-beta3
Description: binding FACS, HEK Flp-In.

Experiment [10] concerns the target T1, huNav1.7α + β1-β2-β3. Nature of the experiment: FACS, CHO Flp-In, competitor 1 µM IRR00092. On the technique in general: In flow cytometry, cells or beads pass a laser one at a time.
For experiment [11], the target named is T4, rhNav1.7α + β1-β2-β3. Nature of the experiment: FACS, CHO Flp-In, competitor 1 µM IRR00092.
Experiment [12] deals with T4, rhNav1.7α + β1-β2-β3. Description: FACS, CHO Flp-In, competitor 1 µM F010300703.
For experiment [13], the target named is T1, huNav1.7α + β1-β2-β3. Nature of the experiment: binding FACS, CHO Flp-In, periplasmic extract.

B1: F010300468 (VHH)
VHH: EVQLVESGGGLVQPGGSLRLSCAASGSIFNINSMAWYRRAPGKQRELVASSTNGGSTNYADSVKGRFTISRDNAKRVYLQMNSLTPEDTAVYYCRALLQPSIYDISRTYWGQGTLVTVSS
notes: also called F0103275B05(N93R) + FLAG3-HIS6; F103275B05(N93R) + FLAG3-HIS6
B1: the “Qpatch IC50” value with huNav1.7α + β1-β2-β3 [1] was found to be 99 nM; in the experiment with huNav1.7α [2], 57 nM. The IC50 was found to be 67 nM with huNav1.7α + β1; 49 nM in the experiment with huNav1.7α [3]; 130 nM with huNav1.7α + β1-β2-β3 [4]; 97 nM with huNav1.7α + β1-β2-β3 [5]; 77 nM with rhNav1.7α + β1-β2-β3 [6].

B2: F010301080 (VHH)
VHH: EVQLVESGGGLVQPGGSLRLSCAASGMLFNANTQGWYRQAPGKQRELVAFIFWGGYVTYNDSVKGRFTISRDNAKRTMYLQMNSLKPEDSAIYYCSLSRYLGQGTLVTVSS
notes: also called F0103265A11(S53W, T57V, N58T, V60N)
For B2, the “IC50 [M], electrophysiology” value with huNav1.7α+β1 [7] amounted to 1.4e-08 M. Besides, the EC50 was found to be 26 nM in the experiment with huNav1.7α [8], 3 nM in the experiment with huNav1.7α+β1 [9] and 5.1 nM in the experiment with huNav1.7α+β1-β2-β3. For the same molecule, the “Bmax relative to '535” value with huNav1.7α+β1 [9] amounted to 122%.

B3: F010301129 (VHH)
VHH: B2 VHH with W53S, Y56W, V57T, T58N, S96A, L101Q
notes: vs F0103265A11: Y56W, V60N, S93A, L103Q
As to B3, the “IC50 [M], electrophysiology” value with huNav1.7α+β1 [7] came out at 1.3e-07 M. Besides, in the experiment with huNav1.7α+β1 [9], the “Bmax relative to '535” value came out at 103% and the EC50 was found to be 3.6 nM.

B4: F010301162 (VHH)
VHH: B2 VHH with A31R, W53S, Y56W, V57T, T58N, L101Q
notes: vs F0103265A11: A31R, Y56W, V60N, L103Q
B4: the “IC50 [M], electrophysiology” value with huNav1.7α+β1 [7] is 3.2e-08 M. Besides, in the experiment with huNav1.7α+β1 [9], the “Bmax relative to '535” value is 115% and the response was half-maximal at 3.8 nM (EC50).

B5: F010301191 (VHH)
VHH: B2 VHH with A31R, W53S, Y56W, V57T, T58N, S96A, R99V, L101Q
notes: vs F0103265A11: A31R, Y56W, V60N, S93A, R101V, L103Q
For B5, the “IC50 [M], electrophysiology” value with huNav1.7α+β1 [7] stood at 6.3e-08 M. In addition, in the experiment with huNav1.7α+β1 [9], the “Bmax relative to '535” value amounted to 119% and the EC50 stood at 4.1 nM.

B6: F010301090 (VHH)
VHH: B2 VHH with W53S, Y56W, V57T, L101Q
notes: vs F0103265A11: Y56W, N58T, V60N, L103Q
In the case of B6, the “IC50 [M], electrophysiology” value with huNav1.7α+β1 [7] is 2.2e-08 M. In the experiment with huNav1.7α+β1 [9], the “Bmax relative to '535” value was 102% and the EC50 came out at 4.8 nM.

B7: F0103PMP492E09 (bispecific antibody)
chain: EVQLVESGGGLVQPGGSLRLSCAASGSIFNINSMAWYRRAPGKQRELVASSTNGGSTNYADSVKGRFTISRDNAKRVYLQMNSLTPEDTAVYYCRALLQPSIYDISRTYWGQGTLVTVSSGGGGSGGGGSGGGGSGGGGSGGGGSGGGGSGGGGSGGGGSGGGGSGGGGSEVQLVESGGGLVQAGGSLRLSCAASKSILSFAYMRWYRQAPGKQREFVASIAIGGATSYTDSVKGRFTISRDNAKNTVYLQMNSLKPEDTAVYYCSAPAGQYRGQGTLVTVSSAAADYKDHDGDYKDHDIDYKDDDDKGAAHHHHHHKAAGGGGG
notes: crude periplasmic extract; also called F103275B05(N93R)-50GS-F0103492E09 bivalent ISVD
Regarding B7, the MFI was found to be 58400 MFI in the experiment with huNav157chim14; 133000 MFI with huNav157chim14-β1-β2-β3; 104000 MFI with huNav1.7α + β1-β2-β3 [10]; 111000 MFI with rhNav1.7α + β1-β2-β3 [11]; 25200 MFI in the experiment with rhNav1.7α + β1-β2-β3 [12]; 40200 MFI in the experiment with huNav1.7α + β1-β2-β3 [13].

B8: F0103PMP478E09 (bispecific antibody)
chain: EVQLVESGGGLVQPGGSLRLSCAASGSIFNINSMAWYRRAPGKQRELVASSTNGGSTNYADSVKGRFTISRDNAKRVYLQMNSLTPEDTAVYYCRALLQPSIYDISRTYWGQGTLVTVSSGGGGSGGGGSGGGGSGGGGSGGGGSGGGGSGGGGSGGGGSGGGGSGGGGSEVQLVESGGGLVQAGGSLRLSCAASGRAFSTLAMGWFRQAPGKEREFVAAISRNGNNSATGDSLKGRFTISRDSTKSTVFLQMNTLKPEDTAVYYCAAISTPSASHPYVRKESYRYWGQGTQVTVSSAAADYKDHDGDYKDHDIDYKDDDDKGAAHHHHHHKAAGGGGG
notes: Screened as crude periplasmic extract; also called F103275B05(N93R)-50GS-F0103478E09 bivalent ISVD
Take B8: the MFI came to 799 MFI with huNav157chim14; 1230 MFI in the experiment with huNav157chim14-β1-β2-β3; 137000 MFI with huNav1.7α + β1-β2-β3 [10]; 139000 MFI in the experiment with rhNav1.7α + β1-β2-β3 [11]; 60600 MFI with rhNav1.7α + β1-β2-β3 [12]; 82800 MFI with huNav1.7α + β1-β2-β3 [13].

A word on the IC50: it is the concentration needed to halve the response being measured. As a reminder, the EC50 is the concentration at which the effect is half-maximal. Read a low EC50 as higher potency in that assay.
